In this experiment the target is human transient receptor potential cation channel, subfamily A, member 1 (hTRPA1) (human) (UniProt O75762). Briefly: cell-based or functional assay.
UniProt O75762, sequence (O75762 whole entry): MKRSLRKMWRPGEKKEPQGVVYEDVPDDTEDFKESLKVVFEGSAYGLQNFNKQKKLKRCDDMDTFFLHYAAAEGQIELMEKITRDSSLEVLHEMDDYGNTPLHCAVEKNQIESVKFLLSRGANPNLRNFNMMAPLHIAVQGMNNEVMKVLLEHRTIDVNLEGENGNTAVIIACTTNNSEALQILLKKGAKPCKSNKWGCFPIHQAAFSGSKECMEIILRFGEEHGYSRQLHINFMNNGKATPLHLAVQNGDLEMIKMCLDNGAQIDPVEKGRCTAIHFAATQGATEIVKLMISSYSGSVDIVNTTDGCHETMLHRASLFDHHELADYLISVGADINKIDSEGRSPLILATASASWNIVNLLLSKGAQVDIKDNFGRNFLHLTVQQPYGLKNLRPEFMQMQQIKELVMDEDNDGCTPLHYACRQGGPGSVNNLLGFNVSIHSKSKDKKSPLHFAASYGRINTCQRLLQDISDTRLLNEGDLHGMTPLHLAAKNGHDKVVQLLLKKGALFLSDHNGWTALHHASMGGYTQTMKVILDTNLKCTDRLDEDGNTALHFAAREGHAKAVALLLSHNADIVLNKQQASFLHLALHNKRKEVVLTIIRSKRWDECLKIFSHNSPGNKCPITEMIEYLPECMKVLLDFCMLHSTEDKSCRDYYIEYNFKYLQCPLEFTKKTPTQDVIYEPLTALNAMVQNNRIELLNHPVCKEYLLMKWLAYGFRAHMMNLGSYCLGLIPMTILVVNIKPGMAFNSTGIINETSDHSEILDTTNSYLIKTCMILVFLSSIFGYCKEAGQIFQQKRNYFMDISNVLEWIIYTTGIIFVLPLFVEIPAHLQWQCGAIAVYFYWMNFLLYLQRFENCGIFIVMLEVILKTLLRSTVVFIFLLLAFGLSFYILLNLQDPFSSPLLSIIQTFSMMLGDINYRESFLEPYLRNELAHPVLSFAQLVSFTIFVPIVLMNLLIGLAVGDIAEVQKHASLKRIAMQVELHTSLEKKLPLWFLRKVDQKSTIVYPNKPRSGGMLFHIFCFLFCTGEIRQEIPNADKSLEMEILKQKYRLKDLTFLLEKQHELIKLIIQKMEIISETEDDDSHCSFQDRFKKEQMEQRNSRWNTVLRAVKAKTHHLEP

With “rabbit metallothionein 2 A isoform containing 7 zinc atoms (rabbit Zn7-MT2A) (Bestenbalt LLC, Estonia) (from UniProt P18055 1-62) (ligand)”, the calcium flux in HEK cells transfected to express human TRPA1 (EC50) turned out to be 200 nM.
